Reference: patent US20200079833A1 (AstraZeneca / MedImmune, published 2020)
Starred links: 1 amine or outer side, 2 acyl side, 3 side chain; linkers in the order of their positions; H or OH if unused. Non-standard residues stand in square brackets, D forms with d. Groups on a side chain read outwards from the residue. Primed or numbered codes have the meaning given here. No end group written: not given here. *: point of attachment. γGlu = O=C(O)[C@H](CCC(=O)[*:2])N[*:1]; αMeF = C[C@](N)(Cc1ccccc1)C(=O)O; αMeK = C[C@](N)(CCCCN)C(=O)O; Lauroyl = CCCCCCCCCCCC(=O)*; αMeS = C[C@](N)(CO)C(=O)O; PEG2′ = not defined here; Aib = CC(C)(N)C(=O)O; Ahx = NCCCCCC(=O)O

T1: glucose-dependent insulinotropic peptide (gastric inhibitory polypeptide) receptor (GIPR) (human, UniProt P48546 22-466)
T1 sequence (looked up): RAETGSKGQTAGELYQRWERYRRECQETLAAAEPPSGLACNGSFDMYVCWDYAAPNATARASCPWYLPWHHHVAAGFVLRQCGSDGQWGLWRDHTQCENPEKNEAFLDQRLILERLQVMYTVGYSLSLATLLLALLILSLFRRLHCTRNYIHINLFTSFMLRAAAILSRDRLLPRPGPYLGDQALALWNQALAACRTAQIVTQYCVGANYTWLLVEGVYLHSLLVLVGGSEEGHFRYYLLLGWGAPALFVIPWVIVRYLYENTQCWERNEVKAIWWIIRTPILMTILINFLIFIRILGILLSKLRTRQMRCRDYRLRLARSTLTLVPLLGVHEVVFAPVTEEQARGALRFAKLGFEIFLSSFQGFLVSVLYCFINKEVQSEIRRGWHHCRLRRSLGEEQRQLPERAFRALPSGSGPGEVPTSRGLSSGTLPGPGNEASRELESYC


Tests used:
Test in all cases: cell-based or functional assay
[1] = molecular target: glucagon receptor (GCGR) (human, UniProt P47871 26-477)
[2] = molecular target: T1, glucose-dependent insulinotropic …
[3] = molecular target: GLP-1 receptor (GLP-1R) (human, UniProt P43220 24-463)

Sequence of glucagon receptor (GCGR) (P47871 26-477): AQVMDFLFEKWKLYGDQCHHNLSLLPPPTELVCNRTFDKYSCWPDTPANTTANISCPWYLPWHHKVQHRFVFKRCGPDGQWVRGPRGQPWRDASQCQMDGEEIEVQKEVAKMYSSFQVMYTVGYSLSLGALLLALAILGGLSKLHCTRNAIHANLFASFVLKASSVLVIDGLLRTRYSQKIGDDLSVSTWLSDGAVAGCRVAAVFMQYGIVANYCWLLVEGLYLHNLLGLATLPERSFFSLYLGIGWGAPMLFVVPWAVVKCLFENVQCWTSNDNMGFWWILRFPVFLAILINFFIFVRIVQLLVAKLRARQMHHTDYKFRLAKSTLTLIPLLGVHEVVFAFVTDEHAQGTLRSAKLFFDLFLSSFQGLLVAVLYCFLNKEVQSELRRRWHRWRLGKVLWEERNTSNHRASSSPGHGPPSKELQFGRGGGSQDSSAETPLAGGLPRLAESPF

Primary assay EC50 (cAMP), Gluc-R, first run [1]	Primary assay EC50 (cAMP), Gluc-R, second run [1]	Primary assay EC50 (cAMP), GIP-R, first run [2]	Primary assay EC50 (cAMP), GIP-R, second run [2]	Primary assay EC50 (cAMP), GLP-1R n1 [3]	Primary assay EC50 (cAMP), GLP-1R n2 [3]	Primary assay EC50 (cAMP), Mean pM GLP-1R [3]	Binder
28 nM	28 nM	28 nM	28 nM	0.0051 nM	0.0026 nM	3.8 pM	H[Aib]EGS[αMeF]TSDV[αMeS]S[αMeF]LEGEAA[αMeK]E[αMeF]IA[αMeF]VVK([Ahx-Ahx-Lauroyl])GG-NH2 (N-terminus assumed; SMILES CCCCCCCCCCCC(=O)NCCCCCC(=O)NCCCCCC(=O)NCCCC[C@H](NC(=O)[C@@H](NC(=O)[C@@H](NC(=O)[C@](C)(Cc1ccccc1)NC(=O)[C@H](C)NC(=O)[C@@H](NC(=O)[C@](C)(Cc1ccccc1)NC(=O)[C@H](CCC(=O)O)NC(=O)[C@](C)(CCCCN)NC(=O)[C@H](C)NC(=O)[C@H](C)NC(=O)[C@H](CCC(=O)O)NC(=O)CNC(=O)[C@H](CCC(=O)O)NC(=O)[C@H](CC(C)C)NC(=O)[C@](C)(Cc1ccccc1)NC(=O)[C@H](CO)NC(=O)[C@](C)(CO)NC(=O)[C@@H](NC(=O)[C@H](CC(=O)O)NC(=O)[C@H](CO)NC(=O)[C@@H](NC(=O)[C@](C)(Cc1ccccc1)NC(=O)[C@H](CO)NC(=O)CNC(=O)[C@H](CCC(=O)O)NC(=O)C(C)(C)NC(=O)[C@@H](N)Cc1c[nH]cn1)[C@@H](C)O)C(C)C)[C@@H](C)CC)C(C)C)C(C)C)C(=O)NCC(=O)NCC(N)=O) [SEQ ID NO 168]
26 nM	26 nM	26 nM	26 nM	0.0072 nM	0.0027 nM	4.9 pM	H[Aib]EGS[αMeF]TSDV[αMeS]S[αMeF]LEGEAA[αMeK]E[αMeF]IA[αMeF]VVK([γGlu-γGlu-γGlu-Lauroyl])GG-NH2 (N-terminus assumed; SMILES CCCCCCCCCCCC(=O)N[C@@H](CCC(=O)N[C@@H](CCC(=O)N[C@@H](CCC(=O)NCCCC[C@H](NC(=O)[C@@H](NC(=O)[C@@H](NC(=O)[C@](C)(Cc1ccccc1)NC(=O)[C@H](C)NC(=O)[C@@H](NC(=O)[C@](C)(Cc1ccccc1)NC(=O)[C@H](CCC(=O)O)NC(=O)[C@](C)(CCCCN)NC(=O)[C@H](C)NC(=O)[C@H](C)NC(=O)[C@H](CCC(=O)O)NC(=O)CNC(=O)[C@H](CCC(=O)O)NC(=O)[C@H](CC(C)C)NC(=O)[C@](C)(Cc1ccccc1)NC(=O)[C@H](CO)NC(=O)[C@](C)(CO)NC(=O)[C@@H](NC(=O)[C@H](CC(=O)O)NC(=O)[C@H](CO)NC(=O)[C@@H](NC(=O)[C@](C)(Cc1ccccc1)NC(=O)[C@H](CO)NC(=O)CNC(=O)[C@H](CCC(=O)O)NC(=O)C(C)(C)NC(=O)[C@@H](N)Cc1c[nH]cn1)[C@@H](C)O)C(C)C)[C@@H](C)CC)C(C)C)C(C)C)C(=O)NCC(=O)NCC(N)=O)C(=O)O)C(=O)O)C(=O)O) [SEQ ID NO 166]
29 nM	29 nM	29 nM	29 nM	0.013 nM	0.0069 nM	10 pM	H[Aib]EGS[αMeF]TSDV[αMeS]S[αMeF]LEGEAA[αMeK]E[αMeF]IA[αMeF]VVK([Ahx-Lauroyl])GG-NH2 (N-terminus assumed; SMILES CCCCCCCCCCCC(=O)NCCCCCC(=O)NCCCC[C@H](NC(=O)[C@@H](NC(=O)[C@@H](NC(=O)[C@](C)(Cc1ccccc1)NC(=O)[C@H](C)NC(=O)[C@@H](NC(=O)[C@](C)(Cc1ccccc1)NC(=O)[C@H](CCC(=O)O)NC(=O)[C@](C)(CCCCN)NC(=O)[C@H](C)NC(=O)[C@H](C)NC(=O)[C@H](CCC(=O)O)NC(=O)CNC(=O)[C@H](CCC(=O)O)NC(=O)[C@H](CC(C)C)NC(=O)[C@](C)(Cc1ccccc1)NC(=O)[C@H](CO)NC(=O)[C@](C)(CO)NC(=O)[C@@H](NC(=O)[C@H](CC(=O)O)NC(=O)[C@H](CO)NC(=O)[C@@H](NC(=O)[C@](C)(Cc1ccccc1)NC(=O)[C@H](CO)NC(=O)CNC(=O)[C@H](CCC(=O)O)NC(=O)C(C)(C)NC(=O)[C@@H](N)Cc1c[nH]cn1)[C@@H](C)O)C(C)C)[C@@H](C)CC)C(C)C)C(C)C)C(=O)NCC(=O)NCC(N)=O) [SEQ ID NO 167]
27 nM	27 nM	27 nM	27 nM	0.0034 nM	0.0017 nM	2.6 pM	H[Aib]EGS[αMeF]TSDV[αMeS]S[αMeF]LEGEAA[αMeK]E[αMeF]IA[αMeF]VVK([Ahx-Ahx-Ahx-Lauroyl])GG-NH2 (N-terminus assumed; SMILES CCCCCCCCCCCC(=O)NCCCCCC(=O)NCCCCCC(=O)NCCCCCC(=O)NCCCC[C@H](NC(=O)[C@@H](NC(=O)[C@@H](NC(=O)[C@](C)(Cc1ccccc1)NC(=O)[C@H](C)NC(=O)[C@@H](NC(=O)[C@](C)(Cc1ccccc1)NC(=O)[C@H](CCC(=O)O)NC(=O)[C@](C)(CCCCN)NC(=O)[C@H](C)NC(=O)[C@H](C)NC(=O)[C@H](CCC(=O)O)NC(=O)CNC(=O)[C@H](CCC(=O)O)NC(=O)[C@H](CC(C)C)NC(=O)[C@](C)(Cc1ccccc1)NC(=O)[C@H](CO)NC(=O)[C@](C)(CO)NC(=O)[C@@H](NC(=O)[C@H](CC(=O)O)NC(=O)[C@H](CO)NC(=O)[C@@H](NC(=O)[C@](C)(Cc1ccccc1)NC(=O)[C@H](CO)NC(=O)CNC(=O)[C@H](CCC(=O)O)NC(=O)C(C)(C)NC(=O)[C@@H](N)Cc1c[nH]cn1)[C@@H](C)O)C(C)C)[C@@H](C)CC)C(C)C)C(C)C)C(=O)NCC(=O)NCC(N)=O) [SEQ ID NO 169]
28 nM	28 nM	28 nM	28 nM	0.008 nM	0.0045 nM	6.2 pM	H[Aib]EGS[αMeF]TSDV[αMeS]S[αMeF]LEGEAA[αMeK]E[αMeF]IA[αMeF]VVK([PEG2′-Lauroyl])GG-NH2 [SEQ ID NO 170]
26 nM	26 nM	26 nM	26 nM	0.0015 nM	0.00072 nM	1.1 pM	H[Aib]EGS[αMeF]TSDV[αMeS]S[αMeF]LEGEAA[αMeK]E[αMeF]IA[αMeF]VVK([PEG2′-PEG2′-PEG2′-Lauroyl])GG-NH2 [SEQ ID NO 172]
27 nM	27 nM	27 nM	27 nM	0.0025 nM	0.0012 nM	1.9 pM	H[Aib]EGS[αMeF]TSDV[αMeS]S[αMeF]LEGEAA[αMeK]E[αMeF]IA[αMeF]VVK([PEG2′-PEG2′-Lauroyl])GG-NH2 [SEQ ID NO 171]
